Data on nine molecules can be found in article PMC5218472 (PLoS Biology, 2017).

The nature of data set [1]: in vitro peptide cleavage, 16 h, RP chromatography. The conditions noted are these: glycan gained.
A further data set has as its system ADAM10. Briefly: Ionomycin-induced ADAM10-mediated IL-6R ectodomain shedding in transiently transfected HEK293 cells, sIL-6R ELISA. In kind it is cell-based, human. The settings on record: normalised to PVQD Iono = 100, mean of n = 3. The text has this:
Analysis of IL-6R ectodomain shedding in transiently transfected HEK293 cells or stably transduced Ba/F3-gp130 cell lines by ADAM10 and ADAM17 has been described elsewhere. Analysis of IL-6R proteolysis by CG has been described previously.
The sandwich ELISA, which detects sIL-6R as well as ds-sIL-6R (4-11/Baf227 antibodies) and can be used to quantify total sIL-6R serum levels, was described previously. To specifically detect ds-sIL-6R (either recombinant or in human serum), a similar approach was used (ds6R/Baf227). Both sandwich ELISAs were performed with streptavidin-horseradish peroxidase (R&D Systems, Minneapolis, Minnesota, US) and the peroxidase substrate BM blue POD (Roche, Mannheim, Germany). The enzymatic reaction was stopped by addition of 1.8 M sulfuric acid, and the absorbance read at 450 nm on a Tecan rainbow reader (Tecan, Crailsheim, Germany).
Supplementary file pbio.2000080.s004.tif: S4 Fig Mutation of Val-356 is sufficient to block ADAM10-mediated proteolysis of the IL-6R and the Asp358Ala variant. (A) HEK293 cells were transiently transfected with Expression plasmids encoding the wildtype IL-6R (PV) or the double mutants (IE, DG) as indicated. Cells were either treated with 1 μM ionomycin for 1 h or DMSO as vehicle control. sIL-6R was precipitated from the supernatant with concanavalin A-covered Sepharose beads, and cells were lysed. Both were analyzed via Western blot, and β-actin served as loading control. One out of three experiments with similar outcome is shown. (B, C) The experiment was performed as described under (A), but sIL-6R generation was analyzed via ELISA. In (B), the amount of sIL-6R generated after ionomycin-stimulation of the wildtype IL-6R (PV) was set to 100%, and all other values were calculated accordingly. In (C), the amount of sIL-6R without stimulation was considered as constitutive shedding and set to 1 and the increase of sIL-6R was calculated. Data shown are the mean ± SD from at least three independent experiments (*p<0.05, ns = no significant difference). (D-F) HEK293 cells were transiently transfected with expression plasmids encoding the wildtype IL-6R (PV) or the single mutants (DV, IV, PE, PG) as indicated. The experiments were performed as described in (A) to (C). (G) ADAM10-mediated proteolysis of the IL-6R variants depicted in Fig 4I was analyzed as described in (B). (H) Equal numbers of Ba/F3-gp130-IL-6R_DG cells were incubated for 48 h with increasing amounts (0–100 ng/ml) of either IL-6 or Hyper-IL-6. One representative experiment out of three performed is shown (mean ± SD, biological triplicates). (TIF) Click here for additional data file.

The mark [2] stands for this setting: control: unglycosylated synthetic peptide 1(QD).
[3] abbreviates: control: unglycosylated synthetic peptide 2(QA), Asp358Ala.

B1: IL-6R / sIL-6R (interleukin-6 receptor): peptide 3(QD), GlcNAc at Asn-350 (protein)
parent chain: MLAVGCALLAALLAAPGAALAPRRCPAQEVARGVLTSLPGDSVTLTCPGVEPEDNATVHWVLRKPAAGSHPSRWAGMGRRLLLRSVQLHDSGNYSCYRAGRPAGTVHLLVDVPPEEPQLSCFRKSPLSNVVCEWGPRSTPSLTTKAVLLVRKFQNSPAEDFQEPCQYSQESQKFSCQLAVPEGDSSFYIVSMCVASSVGSKFSKTQTFQGCGILQPDPPANITVTAVARNPRWLSVTWQDPHSWNSSFYRLRFELRYRAERSKTFTTWMVKDLQHHCVIHDAWSGLRHVVQLRAQEEFGQGEWSEWSPEAMGTPWTESRSPPAENEVSTPMQALTTNKDDDNILFRDSANATSLPVQDSSSVPLPTFLVAGGSLAFGTLLCIAIVLRFKKTWKLRALKEGKTSMHPPYSLGQLVPERPRPTPVLVPLISPPVSPSSLGSDNTSSHNRPDARDPRSPYDISNTDYFFPR
In the case of B1, the “other: proteolytic processing, other: percent peptide intact” value (“other … percent peptide intact” for short) in data set [1] (setting [2]) is on record as “decreases”.

B2: IL-6R / sIL-6R (interleukin-6 receptor): peptide 5(QD), biantennary N-glycan at Asn-350 (protein)
parent chain: MLAVGCALLAALLAAPGAALAPRRCPAQEVARGVLTSLPGDSVTLTCPGVEPEDNATVHWVLRKPAAGSHPSRWAGMGRRLLLRSVQLHDSGNYSCYRAGRPAGTVHLLVDVPPEEPQLSCFRKSPLSNVVCEWGPRSTPSLTTKAVLLVRKFQNSPAEDFQEPCQYSQESQKFSCQLAVPEGDSSFYIVSMCVASSVGSKFSKTQTFQGCGILQPDPPANITVTAVARNPRWLSVTWQDPHSWNSSFYRLRFELRYRAERSKTFTTWMVKDLQHHCVIHDAWSGLRHVVQLRAQEEFGQGEWSEWSPEAMGTPWTESRSPPAENEVSTPMQALTTNKDDDNILFRDSANATSLPVQDSSSVPLPTFLVAGGSLAFGTLLCIAIVLRFKKTWKLRALKEGKTSMHPPYSLGQLVPERPRPTPVLVPLISPPVSPSSLGSDNTSSHNRPDARDPRSPYDISNTDYFFPR
With B2, the “other … percent peptide intact” value in data set [1] (setting [2]) is recorded as “abolishes”.

B3: IL-6R / sIL-6R (interleukin-6 receptor): peptide 9(QD), biantennary N-glycan plus GalNAc (protein)
parent chain: MLAVGCALLAALLAAPGAALAPRRCPAQEVARGVLTSLPGDSVTLTCPGVEPEDNATVHWVLRKPAAGSHPSRWAGMGRRLLLRSVQLHDSGNYSCYRAGRPAGTVHLLVDVPPEEPQLSCFRKSPLSNVVCEWGPRSTPSLTTKAVLLVRKFQNSPAEDFQEPCQYSQESQKFSCQLAVPEGDSSFYIVSMCVASSVGSKFSKTQTFQGCGILQPDPPANITVTAVARNPRWLSVTWQDPHSWNSSFYRLRFELRYRAERSKTFTTWMVKDLQHHCVIHDAWSGLRHVVQLRAQEEFGQGEWSEWSPEAMGTPWTESRSPPAENEVSTPMQALTTNKDDDNILFRDSANATSLPVQDSSSVPLPTFLVAGGSLAFGTLLCIAIVLRFKKTWKLRALKEGKTSMHPPYSLGQLVPERPRPTPVLVPLISPPVSPSSLGSDNTSSHNRPDARDPRSPYDISNTDYFFPR
On to B3, for which, in data set [1] (setting [2]), the “other … percent peptide intact” value is recorded as “abolishes”.

B4: IL-6R / sIL-6R (interleukin-6 receptor): peptide 6(QA), biantennary N-glycan at Asn-350 (protein)
parent chain: MLAVGCALLAALLAAPGAALAPRRCPAQEVARGVLTSLPGDSVTLTCPGVEPEDNATVHWVLRKPAAGSHPSRWAGMGRRLLLRSVQLHDSGNYSCYRAGRPAGTVHLLVDVPPEEPQLSCFRKSPLSNVVCEWGPRSTPSLTTKAVLLVRKFQNSPAEDFQEPCQYSQESQKFSCQLAVPEGDSSFYIVSMCVASSVGSKFSKTQTFQGCGILQPDPPANITVTAVARNPRWLSVTWQDPHSWNSSFYRLRFELRYRAERSKTFTTWMVKDLQHHCVIHDAWSGLRHVVQLRAQEEFGQGEWSEWSPEAMGTPWTESRSPPAENEVSTPMQALTTNKDDDNILFRDSANATSLPVQASSSVPLPTFLVAGGSLAFGTLLCIAIVLRFKKTWKLRALKEGKTSMHPPYSLGQLVPERPRPTPVLVPLISPPVSPSSLGSDNTSSHNRPDARDPRSPYDISNTDYFFPR
As for B4, the “other … percent peptide intact” value in data set [1] (setting [3]) is listed as “no change”.

B5: IL-6R / sIL-6R (interleukin-6 receptor): peptide 7(QD), GalNAc at Thr-352 (protein)
parent chain: MLAVGCALLAALLAAPGAALAPRRCPAQEVARGVLTSLPGDSVTLTCPGVEPEDNATVHWVLRKPAAGSHPSRWAGMGRRLLLRSVQLHDSGNYSCYRAGRPAGTVHLLVDVPPEEPQLSCFRKSPLSNVVCEWGPRSTPSLTTKAVLLVRKFQNSPAEDFQEPCQYSQESQKFSCQLAVPEGDSSFYIVSMCVASSVGSKFSKTQTFQGCGILQPDPPANITVTAVARNPRWLSVTWQDPHSWNSSFYRLRFELRYRAERSKTFTTWMVKDLQHHCVIHDAWSGLRHVVQLRAQEEFGQGEWSEWSPEAMGTPWTESRSPPAENEVSTPMQALTTNKDDDNILFRDSANATSLPVQDSSSVPLPTFLVAGGSLAFGTLLCIAIVLRFKKTWKLRALKEGKTSMHPPYSLGQLVPERPRPTPVLVPLISPPVSPSSLGSDNTSSHNRPDARDPRSPYDISNTDYFFPR
In the case of B5, the “other … percent peptide intact” value in data set [1] (setting [2]) was “decreases”.

B6: IL-6R / sIL-6R (interleukin-6 receptor): peptide 8(QA), GalNAc at Thr-352 (protein)
parent chain: MLAVGCALLAALLAAPGAALAPRRCPAQEVARGVLTSLPGDSVTLTCPGVEPEDNATVHWVLRKPAAGSHPSRWAGMGRRLLLRSVQLHDSGNYSCYRAGRPAGTVHLLVDVPPEEPQLSCFRKSPLSNVVCEWGPRSTPSLTTKAVLLVRKFQNSPAEDFQEPCQYSQESQKFSCQLAVPEGDSSFYIVSMCVASSVGSKFSKTQTFQGCGILQPDPPANITVTAVARNPRWLSVTWQDPHSWNSSFYRLRFELRYRAERSKTFTTWMVKDLQHHCVIHDAWSGLRHVVQLRAQEEFGQGEWSEWSPEAMGTPWTESRSPPAENEVSTPMQALTTNKDDDNILFRDSANATSLPVQASSSVPLPTFLVAGGSLAFGTLLCIAIVLRFKKTWKLRALKEGKTSMHPPYSLGQLVPERPRPTPVLVPLISPPVSPSSLGSDNTSSHNRPDARDPRSPYDISNTDYFFPR
Regarding B6, the “other … percent peptide intact” value in data set [1] (setting [3]) is “decreases, 10.8% ± 5.4% vs 1.0% ± 1.0%”.

B7: IL-6R / sIL-6R (interleukin-6 receptor): peptide 4(QA), GlcNAc at Asn-350 (protein)
parent chain: MLAVGCALLAALLAAPGAALAPRRCPAQEVARGVLTSLPGDSVTLTCPGVEPEDNATVHWVLRKPAAGSHPSRWAGMGRRLLLRSVQLHDSGNYSCYRAGRPAGTVHLLVDVPPEEPQLSCFRKSPLSNVVCEWGPRSTPSLTTKAVLLVRKFQNSPAEDFQEPCQYSQESQKFSCQLAVPEGDSSFYIVSMCVASSVGSKFSKTQTFQGCGILQPDPPANITVTAVARNPRWLSVTWQDPHSWNSSFYRLRFELRYRAERSKTFTTWMVKDLQHHCVIHDAWSGLRHVVQLRAQEEFGQGEWSEWSPEAMGTPWTESRSPPAENEVSTPMQALTTNKDDDNILFRDSANATSLPVQASSSVPLPTFLVAGGSLAFGTLLCIAIVLRFKKTWKLRALKEGKTSMHPPYSLGQLVPERPRPTPVLVPLISPPVSPSSLGSDNTSSHNRPDARDPRSPYDISNTDYFFPR
B7: the “other … percent peptide intact” value in data set [1] (setting [3]) was “no change, 0.4% ± 0.7% vs 1.0% ± 1.0%”.

B8: IL-6R / sIL-6R (interleukin-6 receptor): peptide 10(QA), biantennary N-glycan plus GalNAc (protein)
parent chain: MLAVGCALLAALLAAPGAALAPRRCPAQEVARGVLTSLPGDSVTLTCPGVEPEDNATVHWVLRKPAAGSHPSRWAGMGRRLLLRSVQLHDSGNYSCYRAGRPAGTVHLLVDVPPEEPQLSCFRKSPLSNVVCEWGPRSTPSLTTKAVLLVRKFQNSPAEDFQEPCQYSQESQKFSCQLAVPEGDSSFYIVSMCVASSVGSKFSKTQTFQGCGILQPDPPANITVTAVARNPRWLSVTWQDPHSWNSSFYRLRFELRYRAERSKTFTTWMVKDLQHHCVIHDAWSGLRHVVQLRAQEEFGQGEWSEWSPEAMGTPWTESRSPPAENEVSTPMQALTTNKDDDNILFRDSANATSLPVQASSSVPLPTFLVAGGSLAFGTLLCIAIVLRFKKTWKLRALKEGKTSMHPPYSLGQLVPERPRPTPVLVPLISPPVSPSSLGSDNTSSHNRPDARDPRSPYDISNTDYFFPR
As to B8, in data set [1] (setting [3]), the “other … percent peptide intact” value is “decreases, 14.7% ± 6.3% vs 1.0% ± 1.0%”.

B9: PVQA: IL-6R Asp358Ala variant (protein, UniProt P08887 20-468, looked up, variant D358A)
Interleukin-6 receptor …: LAPRRCPAQEVARGVLTSLPGDSVTLTCPGVEPEDNATVHWVLRKPAAGSHPSRWAGMGRRLLLRSVQLHDSGNYSCYRAGRPAGTVHLLVDVPPEEPQLSCFRKSPLSNVVCEWGPRSTPSLTTKAVLLVRKFQNSPAEDFQEPCQYSQESQKFSCQLAVPEGDSSFYIVSMCVASSVGSKFSKTQTFQGCGILQPDPPANITVTAVARNPRWLSVTWQDPHSWNSSFYRLRFELRYRAERSKTFTTWMVKDLQHHCVIHDAWSGLRHVVQLRAQEEFGQGEWSEWSPEAMGTPWTESRSPPAENEVSTPMQALTTNKDDDNILFRDSANATSLPVQASSSVPLPTFLVAGGSLAFGTLLCIAIVLRFKKTWKLRALKEGKTSMHPPYSLGQLVPERPRPTPVLVPLISPPVSPSSLGSDNTSSHNRPDARDPRSPYDISNTDYFFPR
In the case of B9, the results for the “sIL-6R shedding, Figure S4G, mean” value with ADAM10 (treatment DMSO) and with ADAM10 (treatment Iono) were 109.87 and 197.873, respectively.
